Test results from paper PMC5146981, “MMP-13 is constitutively produced in human chondrocytes and co-endocytosed with ADAMTS-5 and TIMP-3 by the endocytic receptor LRP1” (Matrix Biology, 2016).
Like-named read-outs stand apart in the source and are kept apart here.

What was measured:
[1] = biological target: purified human full-length LRP1 (low-density lipoprotein receptor-related protein 1) (human); experiment: ELISA; solid-phase binding; full-length LRP1 (5 nM in TNC) coated on microtiter plates overnight at 4 °C, blocked with 3% BSA; MMPs 0-50 nM for 3 h at room temperature; detected with anti-MMP antibodies and HRP secondary antibody; apparent KD (K_D,app)
[2] = biological target: purified human full-length LRP1 (low-density lipoprotein receptor-related protein 1); experiment: competition solid-phase binding assay (ELISA) on immobilized LRP1; conditions: 200 nM proMMP-1(E200A) as competitor of 6 nM proMMP-13(E223A); detection with anti-FLAG M2 antibody; read off a plot
[3] = biological target: purified human full-length LRP1 (low-density lipoprotein receptor-related protein 1); experiment: solid-phase binding assay (ELISA) on immobilized LRP1; conditions: point at 50 nM MMP, read off a plot
[4] = biological target: purified human full-length LRP1 (low-density lipoprotein receptor-related protein 1) (human); experiment: ELISA; full-length LRP1 coated; proMMP-13(E223A) 0-40 nM in the absence or presence of 50 nM ADAMTS-5, 250 nM ADAMTS-4 or 50 nM TIMP-3 plus 50 μM CT1746; apparent KD (K_D,app)
[5] = biological target: LRP1 ligand-binding cluster I (human) (UniProt Q07954); experiment: ELISA; purified LRP1 fragments (clusters I to IV) coated on microtiter plates; proMMP-13(E223A) or Hpx_(MMP-13) 0-200 nM; detected with anti-MMP-13 181-14G11; extrapolated apparent KD (K_D,app)
[6] = biological target: LRP1 ligand-binding cluster IV (human) (UniProt Q07954); experiment: as above
[7] = biological target: T1, LRP1 ligand-binding cluster II (human, UniProt Q07954 852-1182); experiment: as above
T1 construct: also called soluble LRP1 cluster II
T1 sequence (looked up): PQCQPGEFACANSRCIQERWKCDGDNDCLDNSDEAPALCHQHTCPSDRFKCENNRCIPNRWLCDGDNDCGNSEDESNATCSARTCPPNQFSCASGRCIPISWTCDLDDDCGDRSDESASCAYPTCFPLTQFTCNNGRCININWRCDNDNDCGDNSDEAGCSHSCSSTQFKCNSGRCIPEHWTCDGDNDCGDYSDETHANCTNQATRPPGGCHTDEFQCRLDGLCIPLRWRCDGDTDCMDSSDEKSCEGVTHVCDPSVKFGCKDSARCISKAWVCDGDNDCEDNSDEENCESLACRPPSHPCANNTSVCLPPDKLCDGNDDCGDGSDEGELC

[8] = biological target: LRP1 ligand-binding cluster III (human, UniProt Q07954 2522-2940); experiment: as above
[9] = biological target: purified human full-length LRP1 (low-density lipoprotein receptor-related protein 1) (human)

Chain of LRP1 ligand-binding cluster IV (human) (Q07954 20-4544): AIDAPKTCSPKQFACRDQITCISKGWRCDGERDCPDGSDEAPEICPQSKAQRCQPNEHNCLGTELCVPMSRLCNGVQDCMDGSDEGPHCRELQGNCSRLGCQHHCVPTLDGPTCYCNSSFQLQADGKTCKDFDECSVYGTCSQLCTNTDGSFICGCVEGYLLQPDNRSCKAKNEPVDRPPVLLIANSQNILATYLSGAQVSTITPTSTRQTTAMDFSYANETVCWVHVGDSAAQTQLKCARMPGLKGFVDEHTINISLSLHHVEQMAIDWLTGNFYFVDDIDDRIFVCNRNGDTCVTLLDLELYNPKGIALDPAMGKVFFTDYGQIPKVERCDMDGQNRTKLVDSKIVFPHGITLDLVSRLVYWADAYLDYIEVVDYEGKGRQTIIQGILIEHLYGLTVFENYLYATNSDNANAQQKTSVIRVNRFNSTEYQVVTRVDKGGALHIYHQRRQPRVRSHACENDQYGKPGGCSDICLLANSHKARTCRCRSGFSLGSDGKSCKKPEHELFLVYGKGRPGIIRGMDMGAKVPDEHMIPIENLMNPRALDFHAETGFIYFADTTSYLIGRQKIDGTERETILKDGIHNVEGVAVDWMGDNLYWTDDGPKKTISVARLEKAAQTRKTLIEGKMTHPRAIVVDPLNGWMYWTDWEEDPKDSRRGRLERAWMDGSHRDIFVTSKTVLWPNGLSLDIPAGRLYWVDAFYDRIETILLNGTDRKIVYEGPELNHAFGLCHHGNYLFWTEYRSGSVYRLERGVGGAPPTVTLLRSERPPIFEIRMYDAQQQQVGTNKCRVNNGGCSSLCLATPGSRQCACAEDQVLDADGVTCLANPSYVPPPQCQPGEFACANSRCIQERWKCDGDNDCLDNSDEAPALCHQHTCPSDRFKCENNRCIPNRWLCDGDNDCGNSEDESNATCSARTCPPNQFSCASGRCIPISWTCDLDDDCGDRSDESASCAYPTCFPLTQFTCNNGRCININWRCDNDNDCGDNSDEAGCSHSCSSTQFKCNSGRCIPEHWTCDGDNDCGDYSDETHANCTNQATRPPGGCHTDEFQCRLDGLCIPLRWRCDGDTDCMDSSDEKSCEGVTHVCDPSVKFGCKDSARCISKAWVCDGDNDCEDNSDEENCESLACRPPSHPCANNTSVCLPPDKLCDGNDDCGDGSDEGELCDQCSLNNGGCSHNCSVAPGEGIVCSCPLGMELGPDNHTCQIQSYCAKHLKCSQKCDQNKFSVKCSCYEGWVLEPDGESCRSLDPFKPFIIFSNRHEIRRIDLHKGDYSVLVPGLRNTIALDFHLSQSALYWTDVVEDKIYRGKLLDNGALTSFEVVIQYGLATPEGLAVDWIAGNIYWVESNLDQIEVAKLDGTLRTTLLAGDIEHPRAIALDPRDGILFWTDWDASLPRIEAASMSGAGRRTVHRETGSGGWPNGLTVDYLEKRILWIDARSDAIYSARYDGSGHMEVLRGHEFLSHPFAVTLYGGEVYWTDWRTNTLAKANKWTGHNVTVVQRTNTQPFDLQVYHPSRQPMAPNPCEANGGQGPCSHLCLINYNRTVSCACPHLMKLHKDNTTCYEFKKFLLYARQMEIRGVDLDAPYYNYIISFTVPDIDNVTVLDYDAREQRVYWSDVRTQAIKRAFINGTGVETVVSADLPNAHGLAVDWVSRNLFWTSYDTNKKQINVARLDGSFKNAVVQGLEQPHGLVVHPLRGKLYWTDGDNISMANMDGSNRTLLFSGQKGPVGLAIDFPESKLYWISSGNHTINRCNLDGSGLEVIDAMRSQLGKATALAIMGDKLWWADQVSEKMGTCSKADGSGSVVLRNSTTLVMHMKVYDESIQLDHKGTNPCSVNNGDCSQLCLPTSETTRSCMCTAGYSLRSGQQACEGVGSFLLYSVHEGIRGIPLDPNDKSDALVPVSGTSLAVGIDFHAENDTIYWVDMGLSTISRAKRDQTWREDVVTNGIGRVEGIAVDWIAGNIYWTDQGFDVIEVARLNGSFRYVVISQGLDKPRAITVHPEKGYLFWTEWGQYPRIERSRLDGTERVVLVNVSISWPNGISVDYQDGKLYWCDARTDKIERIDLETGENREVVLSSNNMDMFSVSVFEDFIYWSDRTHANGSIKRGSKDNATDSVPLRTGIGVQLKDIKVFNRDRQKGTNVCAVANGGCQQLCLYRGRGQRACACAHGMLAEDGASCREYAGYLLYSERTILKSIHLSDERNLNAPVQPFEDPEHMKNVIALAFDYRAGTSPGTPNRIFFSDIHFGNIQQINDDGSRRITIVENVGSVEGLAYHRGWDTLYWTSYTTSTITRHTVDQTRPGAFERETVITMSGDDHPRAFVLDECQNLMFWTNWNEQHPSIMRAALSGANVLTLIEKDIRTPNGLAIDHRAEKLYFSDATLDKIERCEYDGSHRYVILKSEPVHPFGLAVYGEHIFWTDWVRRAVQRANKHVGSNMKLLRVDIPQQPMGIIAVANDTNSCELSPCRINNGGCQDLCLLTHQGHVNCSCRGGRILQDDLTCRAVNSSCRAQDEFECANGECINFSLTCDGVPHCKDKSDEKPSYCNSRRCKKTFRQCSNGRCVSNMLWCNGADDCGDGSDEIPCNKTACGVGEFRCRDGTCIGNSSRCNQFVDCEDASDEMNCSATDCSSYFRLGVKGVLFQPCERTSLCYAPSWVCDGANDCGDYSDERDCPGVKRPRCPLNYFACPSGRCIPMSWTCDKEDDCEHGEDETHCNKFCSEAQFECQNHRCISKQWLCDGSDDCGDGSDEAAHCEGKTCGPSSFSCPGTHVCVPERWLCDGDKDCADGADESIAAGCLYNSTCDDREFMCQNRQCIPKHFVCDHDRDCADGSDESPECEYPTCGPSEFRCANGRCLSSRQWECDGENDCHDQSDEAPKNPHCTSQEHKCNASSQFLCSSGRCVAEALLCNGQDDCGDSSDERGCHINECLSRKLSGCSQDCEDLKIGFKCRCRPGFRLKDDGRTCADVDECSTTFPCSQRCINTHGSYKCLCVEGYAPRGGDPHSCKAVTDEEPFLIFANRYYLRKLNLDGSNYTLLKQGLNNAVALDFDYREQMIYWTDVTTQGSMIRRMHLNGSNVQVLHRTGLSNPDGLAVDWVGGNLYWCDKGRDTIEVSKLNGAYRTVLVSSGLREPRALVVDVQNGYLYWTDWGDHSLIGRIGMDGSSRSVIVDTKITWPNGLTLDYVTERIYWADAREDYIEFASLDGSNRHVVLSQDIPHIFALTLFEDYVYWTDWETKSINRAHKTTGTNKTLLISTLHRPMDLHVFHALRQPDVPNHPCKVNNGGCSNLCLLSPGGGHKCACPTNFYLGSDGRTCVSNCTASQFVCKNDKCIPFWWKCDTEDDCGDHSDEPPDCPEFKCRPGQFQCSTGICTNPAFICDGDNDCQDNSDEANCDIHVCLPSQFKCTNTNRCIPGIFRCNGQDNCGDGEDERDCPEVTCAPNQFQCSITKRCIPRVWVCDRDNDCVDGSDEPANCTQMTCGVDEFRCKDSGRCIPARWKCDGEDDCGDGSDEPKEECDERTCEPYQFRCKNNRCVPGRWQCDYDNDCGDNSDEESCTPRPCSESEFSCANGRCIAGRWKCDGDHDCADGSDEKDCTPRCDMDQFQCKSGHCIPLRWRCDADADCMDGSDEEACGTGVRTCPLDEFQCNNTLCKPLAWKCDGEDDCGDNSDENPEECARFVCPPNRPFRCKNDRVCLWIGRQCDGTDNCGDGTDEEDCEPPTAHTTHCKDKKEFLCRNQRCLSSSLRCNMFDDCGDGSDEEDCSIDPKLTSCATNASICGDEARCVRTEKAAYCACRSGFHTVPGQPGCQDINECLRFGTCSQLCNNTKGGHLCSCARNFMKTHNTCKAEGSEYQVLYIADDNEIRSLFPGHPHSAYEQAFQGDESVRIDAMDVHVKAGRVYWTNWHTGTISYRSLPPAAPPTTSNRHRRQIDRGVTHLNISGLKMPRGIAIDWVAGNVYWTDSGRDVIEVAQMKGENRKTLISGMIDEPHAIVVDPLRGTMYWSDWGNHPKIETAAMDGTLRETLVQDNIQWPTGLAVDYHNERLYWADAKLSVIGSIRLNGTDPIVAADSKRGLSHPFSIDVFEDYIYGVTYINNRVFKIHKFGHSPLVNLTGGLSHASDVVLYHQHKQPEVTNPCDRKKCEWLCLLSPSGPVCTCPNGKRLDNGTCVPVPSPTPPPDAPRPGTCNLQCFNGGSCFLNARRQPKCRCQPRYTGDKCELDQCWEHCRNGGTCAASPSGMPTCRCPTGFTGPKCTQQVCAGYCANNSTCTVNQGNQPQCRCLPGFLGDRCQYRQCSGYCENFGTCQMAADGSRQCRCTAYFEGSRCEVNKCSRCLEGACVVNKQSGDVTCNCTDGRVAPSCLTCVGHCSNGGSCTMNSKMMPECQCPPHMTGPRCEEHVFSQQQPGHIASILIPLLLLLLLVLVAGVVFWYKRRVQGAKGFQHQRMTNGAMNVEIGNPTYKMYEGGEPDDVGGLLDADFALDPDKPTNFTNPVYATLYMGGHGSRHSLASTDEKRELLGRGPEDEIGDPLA
Chain of LRP1 ligand-binding cluster I (human) (Q07954 20-4544): as above
Chain of LRP1 ligand-binding cluster III (Q07954 2522-2940): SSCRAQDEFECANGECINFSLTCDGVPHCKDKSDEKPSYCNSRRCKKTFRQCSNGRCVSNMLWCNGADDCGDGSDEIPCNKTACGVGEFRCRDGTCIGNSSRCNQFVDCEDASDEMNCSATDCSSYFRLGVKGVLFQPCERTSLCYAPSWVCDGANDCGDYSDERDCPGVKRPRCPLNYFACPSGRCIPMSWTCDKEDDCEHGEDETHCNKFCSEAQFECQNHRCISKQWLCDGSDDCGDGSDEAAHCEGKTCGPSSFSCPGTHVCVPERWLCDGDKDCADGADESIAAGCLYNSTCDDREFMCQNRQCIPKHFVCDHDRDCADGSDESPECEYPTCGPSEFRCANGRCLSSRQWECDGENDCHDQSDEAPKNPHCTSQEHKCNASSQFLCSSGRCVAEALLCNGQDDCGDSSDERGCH

Molecule: MMP-13(E223A), activated form (from UniProt P45452 104-471) (enzyme)
- Kd [1]: 3.8 nM

Molecule: proMMP-1 E200A
- other: ProMMP-13 bound to LRP1 (% of amount bound without competitor) [2]: 100%
- response (absorbance at 450 nm) ([3]; detection with anti-MMP-1 (SB12e) antibody): 0.13

Molecule: proMMP-1-1-13(E200A) (MMP-1_(1-258)-MMP-13_(264-451)) (enzyme)
- Kd [1]: 5.1 nM

Molecule: proMMP-3 E202A
- response (absorbance at 450 nm) ([3]; detection with anti-MMP-3 (4B7.3) antibody): 0.25

Molecule: proMMP-13(E223A) (from UniProt P45452 20-471) (enzyme)
- K D,app in the presence of 50 nM ADAMTS-5 [4]: 5.2 nM
- K D,app in the presence of 50 nM TIMP-3 [4]: 8.2 nM
- K D,app in the presence of 250 nM ADAMTS-4 [4]: 5.6 nM
- Kd [5]: > 200 nM
- Kd [6]: > 100 nM
- Kd [7]: 17 nM
- Kd [8]: 24 nM
- Kd [1]: 6 nM

Molecule: proMMP-13(WT), MMP-13 with a FLAG tag between the signal and propeptide
- clearance of 10 nM exogenous proMMP-13 from the medium of human chondrocytes, 0-4 h, Western blot; inhibited by 500 nM RAP and in LRP1-silenced cells [9]: 70 min

Molecule: proMMP-13(WT), MMP-13 with a FLAG tag between the signal and propeptide (enzyme)
- Kd [1]: 5.9 nM
- proMMP-13 (10 nM) found in the cell lysate after 1 h with human chondrocytes at 4 °C (surface binding); abolished in the presence of 500 nM RAP [9]: 25%

B1: hemopexin domain of MMP-13 (Hpx_(MMP-13)) (domain or fragment, human, UniProt P45452 284-471, looked up)
chain: CDPSLSLDAITSLRGETMIFKDRFFWRLHPQQVDAELFLTKSFWPELPNRIDAAYEHPSHDLIFIFRGRKFWALNGYDILEGYPKKISELGLPKEVKKISAAVHFEDTGKTLLFSGNQVWRYDDTNHIMDKDYPRLIEEDFPGIGDKVDAVYEKNGYIYFFNGPIQFEYSIWSNRIVRVMPANSILWC
notes: MMP-13 (collagenase 3), human, hemopexin domain released by autolysis; also called Hpx domain of MMP-13; source: from proMMP-13 incubated with 1 mM APMA at 37 °C for at least 16 h
- Kd [5]: > 200 nM
- Kd [6]: > 50 nM
- Kd ([7]; both partners purified): 15 nM
- Kd ([8]; both partners purified): 13 nM
- Kd [1]: 2.7 nM
